Data from paper PMC4600761.

Tests used:
[1] = biological target: Syx-mtq (mTurquoise fused to the C terminus of syntaxin1A) (rat) (UniProt P32851); test: FRET or BRET; two-photon FLIM, time-lapse (18 s accumulation); rat cortical neurons in dissociated culture during 300 mM sucrose stimulation; A1 from decay curve fitting or from average lifetime (τ1 0.5 ns assumed)
[2] = biological target: Syx-mtq2 (mTurquoise2 fused to the C terminus of syntaxin1A) (rat) (UniProt P32851); test: FRET or BRET; two-photon FLIM, A1 fraction; Schaffer collateral boutons and axons in the CA1 region of rat hippocampal slice culture, probes by AAV1, resting
Syx-mtq2 (mTurquoise2 fused to the C terminus of syntaxin1A) (rat), sequence (P32851 whole entry, the tested form may be a part): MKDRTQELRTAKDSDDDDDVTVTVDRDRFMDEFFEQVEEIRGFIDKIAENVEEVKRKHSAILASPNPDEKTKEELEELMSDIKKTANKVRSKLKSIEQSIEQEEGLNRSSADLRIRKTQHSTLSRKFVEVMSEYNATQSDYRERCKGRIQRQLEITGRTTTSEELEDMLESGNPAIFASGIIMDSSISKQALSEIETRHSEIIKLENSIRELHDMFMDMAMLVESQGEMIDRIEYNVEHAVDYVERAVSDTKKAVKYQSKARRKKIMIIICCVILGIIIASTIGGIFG

[3] = biological target: Syx-mtq (mTurquoise fused to the C terminus of syntaxin1A) (rat) (UniProt P32851); test: FRET or BRET; two-photon FLIM of the mtq donor; fast decay component (A1 fraction) taken as the binding fraction of the donor; live rat cortical neurons in dissociated culture, lipofected, resting; boutons and axons
[4] = biological target: Syx-mtq2 (mTurquoise2 fused to the C terminus of syntaxin1A) (rat) (UniProt P32851); test: FRET or BRET; two-photon FLIM, A1 fraction; Schaffer collateral boutons in rat hippocampal slice culture, probes by AAV1, during 300 mM sucrose stimulation
[5] = biological target: mtq-Syx (mTurquoise fused to the N terminus of syntaxin1A) (rat) (UniProt P32851); test: FRET or BRET; two-photon FLIM, A1 fraction; rat cortical neurons in dissociated culture after chemical fixation and counterstaining with anti-synaptophysin antibody
mtq-Syx (mTurquoise fused to the N terminus of syntaxin1A) (rat), sequence (P32851 whole entry, the tested form may be a part): as above

[6] = biological target: mtq-SNAP25b (mTurquoise fused to the N terminus of synaptosomal-associated protein 25b) (mouse) (UniProt P60879); test: FRET or BRET
mtq-SNAP25b (mTurquoise fused to the N terminus of synaptosomal-associated protein 25b) (mouse), sequence (P60879 whole entry, the tested form may be a part): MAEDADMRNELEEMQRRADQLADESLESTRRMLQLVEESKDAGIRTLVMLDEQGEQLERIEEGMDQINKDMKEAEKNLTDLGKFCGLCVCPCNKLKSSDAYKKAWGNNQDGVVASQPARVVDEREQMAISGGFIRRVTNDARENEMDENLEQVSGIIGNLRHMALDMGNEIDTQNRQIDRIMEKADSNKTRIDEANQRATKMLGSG

[7] = biological target: mtq-Syx (mTurquoise fused to the N terminus of syntaxin1A) (rat) (UniProt P32851); test: FRET or BRET
[8] = biological target: mtq-SNAP25b (mTurquoise fused to the N terminus of synaptosomal-associated protein 25b) (mouse) (UniProt P60879); test: FRET or BRET; two-photon FLIM, time-lapse (1.8 s), A1 from average lifetime (τ1 0.5 ns assumed); β cells in mouse islets stimulated with 16 mM glucose, region of 0.5 μm diameter around single exocytotic events
[9] = biological target: mtq-SNAP25b (mTurquoise fused to the N terminus of synaptosomal-associated protein 25b) (mouse) (UniProt P60879); test: FRET or BRET; two-photon FLIM, A1 fraction; plasma membrane of β cells in mouse islets of Langerhans, probes by lentivirus, resting state
[10] = biological target: mtq-Syx (mTurquoise fused to the N terminus of syntaxin1A) (rat) (UniProt P32851); test: as above
[11] = biological target: mtq2-Syx (mTurquoise2 fused to the N terminus of syntaxin1A) (rat) (UniProt P32851); test: FRET or BRET; two-photon FLIM, A1 fraction; Schaffer collateral boutons and axons in the CA1 region of rat hippocampal slice culture, probes by AAV1, resting
mtq2-Syx (mTurquoise2 fused to the N terminus of syntaxin1A) (rat), sequence (P32851 whole entry, the tested form may be a part): as the sequence (P32851 whole entry, the tested form may be a part) above

[12] = biological target: mtq-SNAP25b (mTurquoise fused to the N terminus of synaptosomal-associated protein 25b) (mouse) (UniProt P60879); test: FRET or BRET; two-photon FLIM of the mtq donor; fast decay component (A1 fraction) taken as the binding fraction of the donor; live rat cortical neurons in dissociated culture, lipofected, resting; boutons and axons
[13] = biological target: mtq-Syx (mTurquoise fused to the N terminus of syntaxin1A) (rat) (UniProt P32851); test: as above

Syx-mtq (mTurquoise fused to the C terminus of syntaxin1A) (rat), sequence (P32851 whole entry, the tested form may be a part): as above

## VAMP2-Ven (Venus fused to the C terminus of VAMP2) (from UniProt P63045 1-116) (natural protein)
[1]
  increase in the A1 fraction in boutons on 300 mM sucrose (average lifetime): 12.9%
  increase in the A1 fraction in boutons on 300 mM sucrose (decay curve fitting): 11.8%
[2]
  A1 fraction (FRET of cis-complexes), boutons, resting state: 3.7%
[3]
  A1 fraction (binding fraction, cis-complex), axons: 21.5%
  A1 fraction (binding fraction, cis-complex), boutons: 24.7%
[4]
  A1 fraction (FRET of cis-complexes), boutons, during sucrose stimulation: 13.6%

## Ven-VAMP2 (Venus fused to the N terminus of vesicle-associated membrane protein 2) (from UniProt P63045 1-116) (natural protein)
[5]
  A1 fraction (binding fraction), boutons, after fixation: 33.2%
  A1 fraction (binding fraction), pixels in axons: 15.6%
  A1 fraction (binding fraction), pixels of boutons negative for synaptophysin: 17.4%
  A1 fraction (binding fraction), pixels of boutons positive for synaptophysin: 38.8%
[6]
  other: 14.5%
[7]
  other: 16.3%
[8]
  peak A1 fraction (binding fraction) before single exocytotic events, averaged traces of 61 events, 16 mM glucose: 8.3%
[9]
  A1 fraction (binding fraction), plasma membrane of resting β cells: < 2%
[10]
  A1 fraction (binding fraction), plasma membrane of resting β cells: < 2%
[11]
  mean trans-SNARE fraction in boutons (A1b−A1a): 11.9%
  trans-SNARE fraction in the active zone (A1s–A1a), spines with volumes >0.25: 27.7%
[12]
  A1 fraction (binding fraction), axons: 22.7%
  A1 fraction (binding fraction), boutons: 36.7%
[13]
  A1 fraction (binding fraction), axons: 22.4%
  A1 fraction (binding fraction), boutons, live: 34.1%
  trans-SNARE fraction in each bouton (A1b−A1a): 11.6%
